Reference: US20160223562A1, “Method for Determining the Concentration of a Peptide” (JPT Peptide Technologies GmbH, priority 2010, published 2016)
Square brackets hold non-standard residues; d marks the D form. Peptide text beside a SMILES is read from it. Tyr(3-NO2) = N[C@@H](Cc1ccc(O)c([N+](=O)[O-])c1)C(=O)O

How the values were obtained:
Trypsin [1] = biological target: T1, Trypsin (Sus scrofa, UniProt P00761); experiment: Trypsin cleavage of C-terminal quantification tag -SA-nitroTyr-G from peptides, LC-MS with UV detection at 350 nm; assay type: biochemical; conditions: after reduction and alkylation, trypsin enzyme/substrate 1:50 over night at RT
T1 construct: purchased Promega Corporation V511
Description: 23 peptides carrying the C-terminal quantification-tag-SA-nitroTyr-G-OH (SEQ ID NO:2) were synthesized by Fmoc-based solid phase peptide synthesis and purified by HPLC. Each peptide was subjected to the following trypsin cleavage protocol:
Trypsin Activation: Trypsin (20 μg, sequencing grade modified trypsin, Promega Corporation, Madison, Wis., USA, catalogue no. V511, specific activity 16.965 u/mg) was dissolved in Trypsin resuspension buffer (200 μL, Promega, catalogue no. V542A, ingredient 50 mM acetic acid) and incubated for 15 min at 37° C.
Reduction and alkylation: The peptide (approx. 0.05 mg) was dissolved in 1 M urea and 100 mM fresh ammonium hydrogen carbonate (300 μL). TCEP (Tris(2-carboxyethyl) phosphine hydrochloride, 0.2 M, 7.5 μL, final concentration 5 mM) was added and the solution incubated at 37° C. for 1 h. After addition of iodoacetamide (0.5 M, 6.0 μL, final concentration 10 mM) the solution was incubated at RT in the dark for another 30 min. Digestion: The sample was digested with activated Trypsin solution (10 μL per well, 1.0 μg, resulting enzyme/substrate ratio 1:50) over night at RT. To stop the digestion, HCl (2 M, 8 μL final concentration 50 mM) and TFA (3.2 μL, final concentration 1%, pH<2) were added. Finally, the sample was analyzed by LC-MS at 350 nm.

Trypsin [2] = biological target: T1, Trypsin; experiment: Trypsin cleavage of N-terminal quantification tag Ac-nitroTyr-SGK- from peptides, LC-MS with UV detection at 350 nm; assay type: biochemical; conditions: for Kusebauch 24 h, RT: Percent Cleavage of Tag [by UV350 - Peptide-Tag vs. Tag]: trypsin protocol of example 9, 24 h

T1 sequence (P00761 9-231): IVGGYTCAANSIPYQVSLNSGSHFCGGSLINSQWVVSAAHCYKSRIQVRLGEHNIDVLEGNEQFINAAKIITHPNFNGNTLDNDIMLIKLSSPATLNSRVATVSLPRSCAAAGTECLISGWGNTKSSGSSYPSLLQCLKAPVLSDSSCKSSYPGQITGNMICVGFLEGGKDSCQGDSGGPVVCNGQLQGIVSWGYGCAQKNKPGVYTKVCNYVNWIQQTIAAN

cleavage efficiency in words (Trypsin [2]; trypsin) | Compound | Percent Cleavage of Tag [by UV at 350 nm] (Trypsin [1]) [%] | Kusebauch 24 h, RT: Percent Cleavage of Tag [by UV350 - Peptide-Tag vs. Tag] (Trypsin [2]) [%]
not efficiently cleaved | CC(=O)N[C@@H](Cc1ccc(O)c([N+](=O)[O-])c1)C(=O)N[C@@H](CO)C(=O)NCC(=O)N[C@@H](CCCCN)C(=O)N[C@@H](CC(=O)O)C(=O)N[C@H](C(=O)N[C@@H](C)C(=O)N[C@@H](CC(C)C)C(=O)N[C@@H](CO)C(=O)N[C@@H](CC(C)C)C(=O)N[C@@H](CC(=O)O)C(=O)N[C@@H](CC(=O)O)C(=O)N[C@H](C(=O)N[C@@H](CCCCN)C(=O)O)C(C)C)C(C)C [Peptide 23, Ac-nitroTyr-SGKDVALSLDDV-K-OH] (Ac-[Tyr(3-NO2)]SGKDVALSLDDVK-OH) | 100 | 59.2
– | Ac-nitroTyr-SGKATHYFIDLN-K-OH (Ac-[Tyr(3-NO2)]SGKATHYFIDLNK-OH; SMILES CC[C@H](C)[C@H](NC(=O)[C@H](Cc1ccccc1)NC(=O)[C@H](Cc1ccc(O)cc1)NC(=O)[C@H](Cc1c[nH]cn1)NC(=O)[C@@H](NC(=O)[C@H](C)NC(=O)[C@H](CCCCN)NC(=O)CNC(=O)[C@H](CO)NC(=O)[C@H](Cc1ccc(O)c([N+](=O)[O-])c1)NC(C)=O)[C@@H](C)O)C(=O)N[C@@H](CC(=O)O)C(=O)N[C@@H](CC(C)C)C(=O)N[C@@H](CC(N)=O)C(=O)N[C@@H](CCCCN)C(=O)O) [Peptide 1] | 100 | 100.0
– | Ac-nitroTyr-SGKHTHYFIDLN-K-OH (Ac-[Tyr(3-NO2)]SGKHTHYFIDLNK-OH; SMILES CC[C@H](C)[C@H](NC(=O)[C@H](Cc1ccccc1)NC(=O)[C@H](Cc1ccc(O)cc1)NC(=O)[C@H](Cc1c[nH]cn1)NC(=O)[C@@H](NC(=O)[C@H](Cc1c[nH]cn1)NC(=O)[C@H](CCCCN)NC(=O)CNC(=O)[C@H](CO)NC(=O)[C@H](Cc1ccc(O)c([N+](=O)[O-])c1)NC(C)=O)[C@@H](C)O)C(=O)N[C@@H](CC(=O)O)C(=O)N[C@@H](CC(C)C)C(=O)N[C@@H](CC(N)=O)C(=O)N[C@@H](CCCCN)C(=O)O) [Peptide 7] | 100 | 100.0
